Earlier results, collected in publication PMC6222470.
Blank lines part the entries; values can stand above or below the substance they belong to.

Assays:
[1] = molecular target: histone H3.3K36me3 H3.3 peptide (Homo sapiens) (UniProt P84243)
[2] = molecular target: histone H3 H3K36me3 peptide (Homo sapiens) (UniProt P68431)
[3] = molecular target: histone H4 H4K20me2 peptide (Homo sapiens) (UniProt P62805)
[4] = molecular target: histone H3 H3K14ac peptide (Homo sapiens) (UniProt P68431)
[5] = molecular target: histone H3K14ac peptide H3 tail peptide (Homo sapiens) (UniProt P68431)

Chain of ZMYND11 PHD-BD-ZnF-PWWP (Q15326 100-371): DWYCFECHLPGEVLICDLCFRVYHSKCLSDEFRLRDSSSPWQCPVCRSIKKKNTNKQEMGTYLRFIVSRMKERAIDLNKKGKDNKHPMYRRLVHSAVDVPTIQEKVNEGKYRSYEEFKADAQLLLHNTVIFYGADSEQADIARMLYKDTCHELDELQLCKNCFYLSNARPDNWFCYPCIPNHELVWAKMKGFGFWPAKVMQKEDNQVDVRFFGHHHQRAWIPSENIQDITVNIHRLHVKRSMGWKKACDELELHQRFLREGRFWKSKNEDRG
Chain of PHF1 Tudor (O43189 26-89): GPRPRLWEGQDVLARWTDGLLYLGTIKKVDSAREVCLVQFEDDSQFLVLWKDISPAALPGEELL
Chain of 53BP1 TTD (Q12888 1484-1603): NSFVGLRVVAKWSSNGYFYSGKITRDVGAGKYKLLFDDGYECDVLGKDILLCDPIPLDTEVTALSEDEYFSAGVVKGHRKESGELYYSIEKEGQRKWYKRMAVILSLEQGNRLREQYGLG
Chain of histone H3.3K36me3 H3.3 peptide (Homo sapiens) (P84243 20-43): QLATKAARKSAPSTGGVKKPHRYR
Chain of BRM BD BD (P51531 1378-1506): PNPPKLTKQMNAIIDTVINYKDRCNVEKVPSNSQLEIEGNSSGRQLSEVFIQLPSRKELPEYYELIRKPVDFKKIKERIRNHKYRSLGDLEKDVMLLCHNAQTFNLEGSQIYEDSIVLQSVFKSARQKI
Chain of BRM BD (P51531 1378-1506): as above

Substance: 53BP1 TTD (from UniProt Q12888)
Kd [3]: 19.7 µM

Substance: BRM BD (from UniProt P51531)
Kd [4]: 900 µM

Substance: BRM BD BD (from UniProt P51531)
Kd [5]: 900 µM

Further lines, results first:

Kd [1]: 56 µM
Substance: ZMYND11 PHD-BD-ZnF-PWWP (from UniProt Q15326)

Kd [2]: 36 µM
Substance: PHF1 Tudor (from UniProt O43189)
